Reference: patent US20110097270A1 (published 2011)

Molecular target: hepatitis B virus (HBV) inoculum (hepatitis B virus)
Assay: cell-based or functional assay

B1: HBV#8 Fab (Fab, V domains shown)
VH: EVQLLESGPGLVKPSQTLSLTCAVSGAFMTSDYLYWSWLRQPPGKGPEWIGGIYTTGRSHYNPSLRGRATLSVDTSKNQFSLELNSVTAADTAVYYCARGQYHNWGPSLFDYYNYYYMDVWGKGTTVTVSS
VL: AAELTQSPSSLSASVGDRVTITCRASQDISNYLAWYQQKPGKAPKLLIYSASRLQSGVPSRFSGSGSGTDYTLTLSSLHPEDSATYYCHQYHSAPWTFGQGTKVEIKR
P/N of HBsAg in cell supernatant (RIA, day 12) at MAb 0.01 µg ml^-1: 82 P/N ratio
P/N of HBsAg in cell supernatant (RIA, day 12) at MAb 0.1 µg ml^-1: 83.3 P/N ratio
P/N of HBsAg in cell supernatant (RIA, day 12) at MAb 1.0 µg ml^-1: 55.8 P/N ratio
P/N of HBsAg in cell supernatant (RIA, day 12) at MAb 10.0 µg ml^-1: 4.1 P/N ratio
